# Assay results published in the supplement of paper PMC7125110.
# ± gives the standard error. For part of these data: This sample holds only a part of the variants without activity.
# B1: glmS ribozyme (parent)
# chain: AUAAAAGCGCCAGAACUACAGAAAUGUAGUUGACGAGGAGGAGGUUUAUCGAAUUUUCGGCGGAUGCCUCCAAA
# Experiments:
# Conditions in all cases: with glucosamine-6-phosphate
# glucosamine-6-phosphate [1] = variants of: B1; assay: kcat; higher = faster cleavage; RNA array
# Procedure, shortened: (§1)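 E. coli RNA polymerase transcribed barcoded ribozyme variants in situ on sequenced MiSeq chips, which were tracked via a hybridised Cy3 probe at 37 °C. Tiles were imaged over ~14 h after glucosamine-6-phosphate (40 μM to 10 mM) in HEPES/KCl/Mg(OAc)2 buffer was flowed in. Normalised per-tile medians were fit to one- or two-exponential decays for kobs, and kcat and KM came from weighted Michaelis–Menten fits.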
# glucosamine-6-phosphate [2] = variants of: B1; assay: self-cleavage kobs at 40 uM GlcN6P; higher = faster cleavage; RNA array
# Procedure, shortened: as §1
# glucosamine-6-phosphate [3] = variants of: B1; assay: self-cleavage kobs at 640 uM GlcN6P; higher = faster cleavage; RNA array
# Procedure, shortened: as §1
# glucosamine-6-phosphate [4] = variants of: B1; assay: self-cleavage kobs at 2500 uM GlcN6P; higher = faster cleavage; RNA array
# Procedure, shortened: as §1
# glucosamine-6-phosphate [5] = variants of: B1; assay: self-cleavage kobs at 10000 uM GlcN6P; higher = faster cleavage; RNA array
# Procedure, shortened: as §1
# glucosamine-6-phosphate [6] = variants of: B1; assay: KM; higher = weaker cofactor use; RNA array
# Procedure, shortened: as §1
# glucosamine-6-phosphate [7] = variants of: B1; assay: self-cleavage kobs at 160 uM GlcN6P; higher = faster cleavage; RNA array
# Procedure, shortened: as §1
Variant,kcat (glucosamine-6-phosphate [1]) [s⁻¹],self-cleavage kobs at 40 uM GlcN6P (glucosamine-6-phosphate [2]) [s⁻¹],self-cleavage kobs at 640 uM GlcN6P (glucosamine-6-phosphate [3]) [s⁻¹],self-cleavage kobs at 2500 uM GlcN6P (glucosamine-6-phosphate [4]) [s⁻¹],self-cleavage kobs at 10000 uM GlcN6P (glucosamine-6-phosphate [5]) [s⁻¹],KM (glucosamine-6-phosphate [6]) [mM],self-cleavage kobs at 160 uM GlcN6P (glucosamine-6-phosphate [7]) [s⁻¹]
G29C U54G,0.000894 ± 0.00025,6e-05 ± 1.7e-05,0.000289 ± 6.5e-05,0.00051 ± 0.00013,0.000918 ± 0.00014,,
G29U A52U,0.000123 ± 1.2e-05,,,,8.41e-05 ± 1e-05,4.62 ± 1.4,
G29U A36U,< 1e-05,,,< 1e-05,,,
U30G C58G A64C C67G C71G,4.36e-05 ± 1.6e-05,,,,,,5.89e-05 ± 2e-05
U30G C68U,0.00118 ± 0.00027,,0.000154 ± 3.1e-05,0.000642 ± 0.00015,0.000827 ± 0.00013,3.82 ± 1.5,
U30G G32A,0.00542 ± 0.0022,5.91e-05 ± 1.1e-05,0.000709 ± 9.2e-05,0.00123 ± 0.0003,0.00438 ± 0.00065,4.72 ± 2.3,0.00017 ± 2.3e-05
U30G U54C,0.00885 ± 0.00078,0.000148 ± 2.5e-05,0.00235 ± 0.00041,0.00471 ± 0.0008,0.00714 ± 0.001,2.17 ± 0.27,0.000617 ± 0.00011
U30C U46G,3.27e-05 ± 2.8e-06,,,,,5.04 ± 1,
U31C C70G,5.96e-05 ± 8.1e-06,,3.34e-05 ± 7.2e-06,6.15e-05 ± 7.8e-06,4.89e-05 ± 8.3e-06,,
U30C C70A,5.42e-05 ± 6.4e-06,,7.04e-05 ± 2.5e-05,5.57e-05 ± 1.8e-05,4.43e-05 ± 1.5e-05,,5.93e-05 ± 2.3e-05
U30C C58G C68A,5.09e-05 ± 2.1e-05,,9.15e-05 ± 3.9e-05,7.09e-05 ± 1.9e-05,,,
U30C G66A,0.000173 ± 3.1e-05,,3.92e-05 ± 1e-05,0.000153 ± 3.4e-05,0.00014 ± 1.9e-05,1.86 ± 0.84,
U30C G66C,< 1e-05,,< 1e-05,< 1e-05,,0.347 ± 0.12,
G29C U49G,1.82e-05 ± 5.3e-06,< 1e-05,,,,,
U31C A52U,7.02e-05 ± 1.4e-05,,,5.04e-05 ± 6e-06,5.66e-05 ± 7.1e-06,,
U30G U56A,0.00811 ± 0.0019,0.000125 ± 1.6e-05,0.00146 ± 0.00024,0.003 ± 0.00057,0.00771 ± 0.0011,2.73 ± 0.85,0.000498 ± 0.0001
G29C U56G,0.00345 ± 0.0011,,0.000321 ± 6e-05,0.00115 ± 0.00022,0.00181 ± 0.00049,6.77 ± 2.6,7.08e-05 ± 1.4e-05
